Assay results from patent publication US11491212.

These proteins were tested against Factor X, P00742.
Chain of Factor X, P00742 (P00742 whole entry, looked up): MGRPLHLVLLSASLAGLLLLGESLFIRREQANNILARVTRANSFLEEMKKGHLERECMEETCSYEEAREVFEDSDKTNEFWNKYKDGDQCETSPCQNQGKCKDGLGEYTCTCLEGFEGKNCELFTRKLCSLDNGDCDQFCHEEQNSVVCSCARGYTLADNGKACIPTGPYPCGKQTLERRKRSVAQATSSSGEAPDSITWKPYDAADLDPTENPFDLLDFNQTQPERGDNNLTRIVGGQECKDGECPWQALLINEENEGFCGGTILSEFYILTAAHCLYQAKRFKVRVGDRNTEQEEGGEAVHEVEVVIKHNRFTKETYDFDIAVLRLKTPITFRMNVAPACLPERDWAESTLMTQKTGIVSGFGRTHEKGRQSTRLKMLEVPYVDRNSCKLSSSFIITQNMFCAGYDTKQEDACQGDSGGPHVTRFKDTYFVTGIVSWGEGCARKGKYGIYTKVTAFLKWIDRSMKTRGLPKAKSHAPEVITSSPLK

Protein | % of WT kcat/KM [%] | kcat/KM [M⁻¹ s⁻¹]
FIXa Y155F/K247N/N249S/R318Y/T343R/R403E (protein) chain 1: not shown chain 2: not shown | 276 | 1.3e+08
FIXa Y155F/K247N/N249S/R318Y/T343R/R403E/E410N (protein) chain 1: not shown chain 2: not shown | 350 | 1.6e+08
FIXa K247N/N249S/R318Y/R338E/T343R/E410N (protein) chain 1: not shown chain 2: not shown | 687 | 3.2e+08
FIXa K247N/N249S/R318Y/T343R/R403E (protein) chain 1: not shown chain 2: not shown | 84 | 3.9e+07
FIXa Y155F/K247N/N249S/R318Y/T343R/E410N (protein) chain 1: not shown chain 2: not shown | 668 | 3.1e+08
FIXa Y155F/K247N/N249S/R338E/E410N (protein) chain 1: not shown chain 2: not shown | 1009 | 4.7e+08
FIXa K247N/N249S/R318Y/T343R/E410N (protein) chain 1: not shown chain 2: not shown | 439 | 2e+08
FIXa K247N/N249S/R318Y/T343R/R403E/E410N (protein) chain 1: not shown chain 2: not shown | 279 | 1.3e+08

The proteins below were run against Factor X (FX), P00742.
Chain of Factor X (FX), P00742 (P00742 whole entry, looked up): as above

Protein | % of WT kcat/KM (against Catalyst Biosciences WT FIXa) [%] | kcat/KM for activation of FX by FIXa in the Xase complex (FVIIIa, PC/PS vesicles, Ca2+), fluorogenic Spectrafluor FXa read-out [M⁻¹ s⁻¹]
FIXa-R318Y/R338E/E410S (protein) chain 1: not shown chain 2: not shown | 708 | 3.3e+08
FIXa-D104N/K106S/Y155F/K228N/K247N/N249S (protein) chain 1: not shown chain 2: not shown | 137 | 6.3e+07
